Target: biotinylated NM^K184C seed (Saccharomyces cerevisiae) (UniProt P05453)
Experiment: capture of biotinylated seed (50% w/w) on Streptavidin-coated Dynabeads, SDS wash, scintillation counting

biotinylated NM^K184C seed (Saccharomyces cerevisiae), sequence (P05453 1-253 K184C): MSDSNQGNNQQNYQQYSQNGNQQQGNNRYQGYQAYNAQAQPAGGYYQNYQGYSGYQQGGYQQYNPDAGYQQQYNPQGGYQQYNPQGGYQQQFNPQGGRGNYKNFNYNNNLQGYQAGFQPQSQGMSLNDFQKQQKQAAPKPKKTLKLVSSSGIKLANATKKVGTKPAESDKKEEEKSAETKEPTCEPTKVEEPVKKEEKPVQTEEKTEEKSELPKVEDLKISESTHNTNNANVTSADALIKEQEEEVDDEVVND

Q: How did the fraction of seed-bound NM soluble in SDS at early time points turn out when “NM^T158C-iodo[1-14C]acetamide (from UniProt P05453 1-253)” was run?
A: 50%

Reference: patent publication US20050266242A1
